Paper PMC10786891, “Massively parallel profiling of RNA-targeting CRISPR-Cas13d”
Positions count from the first letter of the chain named. Names and notes keep the numbering of the source.

T1: EsCas13d, nuclease-dead (Eubacterium siraeum, UniProt B0MS50, R295A;H300A;R849A;H854A)
T1 sequence: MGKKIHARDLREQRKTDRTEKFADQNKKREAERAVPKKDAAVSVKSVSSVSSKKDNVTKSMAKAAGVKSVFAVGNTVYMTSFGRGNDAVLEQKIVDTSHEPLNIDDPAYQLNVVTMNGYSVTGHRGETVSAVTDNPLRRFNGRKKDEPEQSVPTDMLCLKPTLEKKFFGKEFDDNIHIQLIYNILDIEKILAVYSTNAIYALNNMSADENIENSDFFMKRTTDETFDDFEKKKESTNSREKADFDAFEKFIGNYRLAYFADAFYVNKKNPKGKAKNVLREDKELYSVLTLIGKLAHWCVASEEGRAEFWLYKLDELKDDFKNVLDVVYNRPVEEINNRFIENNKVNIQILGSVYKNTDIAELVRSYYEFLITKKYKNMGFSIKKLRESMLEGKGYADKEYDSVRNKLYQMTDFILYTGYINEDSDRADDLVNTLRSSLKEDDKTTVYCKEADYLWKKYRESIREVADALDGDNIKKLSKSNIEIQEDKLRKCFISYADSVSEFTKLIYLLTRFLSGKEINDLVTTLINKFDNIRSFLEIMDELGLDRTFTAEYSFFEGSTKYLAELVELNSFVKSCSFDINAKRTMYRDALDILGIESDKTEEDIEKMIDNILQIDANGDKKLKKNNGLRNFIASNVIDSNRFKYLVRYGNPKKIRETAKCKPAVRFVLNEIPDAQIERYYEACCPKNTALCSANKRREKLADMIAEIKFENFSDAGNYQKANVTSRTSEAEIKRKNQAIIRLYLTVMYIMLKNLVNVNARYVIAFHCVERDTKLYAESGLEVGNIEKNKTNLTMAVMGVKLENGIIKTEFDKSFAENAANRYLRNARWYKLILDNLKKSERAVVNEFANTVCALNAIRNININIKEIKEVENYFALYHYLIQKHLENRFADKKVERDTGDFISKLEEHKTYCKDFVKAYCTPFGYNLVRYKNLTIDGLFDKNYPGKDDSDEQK

B1: target 1 insG 3' of 19,insU 3' of 13 (mixed)
RNA 1: CACCCGUGCAAAAAUGCAGGGGUCUAAAACUGAGCGGAUAACCUCUCUAUGG
RNA 2: GGGAAUGGAUCCACAUCUACGAAUUCGUACCAUGAGAGAGUGUUAUCCGCUCACCGAGAUCGGAAGAGCACACGU
B2: target 1 insG 3' of 16,insG 3' of 4 (mixed)
RNA 1: B1 RNA 1
RNA 2: GGGAAUGGAUCCACAUCUACGAAUUCGUACCAUAGAGGAGGUUAUCCGCGUCACCGAGAUCGGAAGAGCACACGU
B3: target 1 insC 3' of 12,insU 3' of 4 (mixed)
RNA 1: B1 RNA 1
RNA 2: B2 RNA 2 with G38A, A39G, G41C, G50U
B4: target 1 G12A,A18U (mixed)
RNA 1: B1 RNA 1
RNA 2: GGGAAUGGAUCCACAUCUACGAAUUCGUACCAUUGAGAGAUUAUCCGCUCACCGAGAUCGGAAGAGCACACGU
B5: target 3 G4C,A5U (mixed)
RNA 1: CACCCGUGCAAAAUUGCAGGGGUCUAAAACGACCUGAAUAUUUCAGAUCAAA
RNA 2: GGGAAUGGAUCCACAUCUACGAAUUCGUUUUUGAUCUGAAAUAUUCUCGUCUGCAGAUCGGAAGAGCACACGU
B6: target 3 G3U,U7A (mixed)
RNA 1: B5 RNA 1
RNA 2: B5 RNA 2 with U45A, U47A, C48G, G49U
B7: target 3 A9G,A18G (mixed)
RNA 1: B5 RNA 1
RNA 2: B5 RNA 2 with A34G, A43G, U47A, C48G
B8: target 3 insC 3' of 5,insC 3' of 4 (mixed)
RNA 1: B5 RNA 1
RNA 2: GGGAAUGGAUCCACAUCUACGAAUUCGUUUUUGAUCUGAAAUAUUCACGCGUCUGCAGAUCGGAAGAGCACACGU
B9: target 3 G4U,C6G (mixed)
RNA 1: B5 RNA 1
RNA 2: B5 RNA 2 with C46G, U47A, C48U
B10: target 3 insA 3' of 22,insG 3' of 22 (mixed)
RNA 1: B5 RNA 1
RNA 2: GGGAAUGGAUCCACAUCUACGAAUUCGUUUAGUUGAUCUGAAAUAUUCAGGUCUGCAGAUCGGAAGAGCACACGU
B11: target 3 U2G,C6U (mixed)
RNA 1: B5 RNA 1
RNA 2: B5 RNA 2 with C46U, U47A, C48G, U50G
B12: target 3 insC 3' of 22,insU 3' of 22 (mixed)
RNA 1: B5 RNA 1
RNA 2: B10 RNA 2 with A31C, G32U
B13: target 3 C6G,U7C (mixed)
RNA 1: B5 RNA 1
RNA 2: B5 RNA 2 with U45C, C46G, U47A, C48G
B14: target 3 insC 3' of 21,insC 3' of 3 (mixed)
RNA 1: B5 RNA 1
RNA 2: GGGAAUGGAUCCACAUCUACGAAUUCGUUUUCUGAUCUGAAAUAUUCAGGCUCUGCAGAUCGGAAGAGCACACGU
B15: target 3 insU 3' of 5,insC 3' of 3 (mixed)
RNA 1: B5 RNA 1
RNA 2: B8 RNA 2 with C48U, C50G, G51C
B16: target 3 G3C,A5U (mixed)
RNA 1: B5 RNA 1
RNA 2: B5 RNA 2 with C48G, G49C
B17: target 3 C1A (mixed)
RNA 1: B5 RNA 1
RNA 2: B5 RNA 2 with U47A, C48G, C51A
B18: target 3 C1A,A5C (mixed)
RNA 1: B5 RNA 1
RNA 2: B5 RNA 2 with U47C, C48G, C51A
B19: target 3 C1G,A18G (mixed)
RNA 1: B5 RNA 1
RNA 2: B5 RNA 2 with A34G, U47A, C48G, C51G
B20: target 3 insC 3' of 9,insC 3' of 7 (mixed)
RNA 1: B5 RNA 1
RNA 2: B8 RNA 2 with U44C, C46U, A47C, G49A, C50G
B21: target 3 U2A,C6A (mixed)
RNA 1: B5 RNA 1
RNA 2: B5 RNA 2 with C46A, U47A, C48G, U50A
B22: target 3 insC 3' of 22,insG 3' of 6 (mixed)
RNA 1: B5 RNA 1
RNA 2: B14 RNA 2 with U31C, C32U, A48G, G49A, C51G
B23: target 3 U2G,U8G (mixed)
RNA 1: B5 RNA 1
RNA 2: B5 RNA 2 with U44G, U47A, C48G, U50G
B24: target 3 C1U,G3C (mixed)
RNA 1: B5 RNA 1
RNA 2: B5 RNA 2 with U47A, C48G, G49C, C51U
B25: target 3 C1U,A18G (mixed)
RNA 1: B5 RNA 1
RNA 2: B5 RNA 2 with A34G, U47A, C48G, C51U
B26: target 3 insA 3' of 4,insA 3' of 4 (mixed)
RNA 1: B5 RNA 1
RNA 2: B8 RNA 2 with C48G, G49A, C50A
B27: target 3 A18G (mixed)
RNA 1: B5 RNA 1
RNA 2: B5 RNA 2 with A34G, U47A, C48G
B28: target 3 C1A,A18G (mixed)
RNA 1: B5 RNA 1
RNA 2: B5 RNA 2 with A34G, U47A, C48G, C51A
B29: target 3 U2A,C6U (mixed)
RNA 1: B5 RNA 1
RNA 2: B5 RNA 2 with C46U, U47A, C48G, U50A
B30: target 3 insU 3' of 11,insA 3' of 2 (mixed)
RNA 1: B5 RNA 1
RNA 2: B8 RNA 2 with A43U, U44A, C46U, A47C, C48A, C50G, G51U, U52A
B31: target 3 insC 3' of 7,insC 3' of 3 (mixed)
RNA 1: B5 RNA 1
RNA 2: B8 RNA 2 with A47C, C48A, C50G, G51C
B32: target 3 insC 3' of 21,insG 3' of 5 (mixed)
RNA 1: B5 RNA 1
RNA 2: B14 RNA 2 with C51G

These binders were tested against T1, EsCas13d, nuclease-dead (assay: crRNA (strand 1, pre-loaded); Mg2+; 40 mM Tris-HCl pH 7.5, 150 mM NaCl, 6 mM MgCl2, 1 mM DTT, 0.1% Tween-20, 0.2 mg/ml BSA; 25 C; 10 min per concentration, then washed). Settings: tags: His6-TwinStrep-SUMO cleaved; N-terminal SNAP kept (SNAP-Surface 488); label: 3' end held by stalled T7 RNA polymerase.

First: B1
Second: B2
The Kd of the first is 3.7-fold higher: 51 ± 20 nM for the first, 13.7 ± 0.7 nM for the second. The second binds more tightly here.

First: B3
Second: B4
The Kd of the first is 3.4-fold lower: 7.5 ± 0.8 nM for the first, 25.2 ± 2.7 nM for the second. The first binds more tightly here.

B5 and B6 are within error of each other in Kd: 42.5 ± 10 nM for the first, 37 ± 4.5 nM for the second.

Compared with B7, B8 is 2.3-fold lower in Kd: 26.4 ± 2.95 nM for the first, 11.6 ± 0.65 nM for the second. The second binds more tightly here.

B9 and B10 are within error of each other in Kd: 68.5 ± 15 nM for the first, 48 ± 7 nM for the second.

Compared with B11, B12 is 8-fold higher in Kd: 2.4 ± 0.255 nM for the first, 19.1 ± 3.15 nM for the second.

B13 and B14 are within error of each other in Kd: 60.5 ± 5 nM for the first, 80 ± 30.5 nM for the second.

First: B15
Second: B16
The Kd of the first is 2.3-fold lower: 10.9 ± 1.1 nM for the first, 25 ± 2.6 nM for the second. The first binds more tightly here.

Compared with B17, B18 is 2.9-fold higher in Kd: 20 ± 2.55 nM for the first, 58.5 ± 10 nM for the second. The first binds more tightly here.

First: B19
Second: B20
The Kd of the first is 6.1-fold lower: 18.6 ± 2.6 nM for the first, 113 ± 50.5 nM for the second. The first binds more tightly here.

B21 and B22 are within 1.5-fold of each other in Kd: 15.6 ± 1.9 nM for the first, 22.1 ± 2.45 nM for the second.

B23 and B24 are within error of each other in Kd: 47 ± 14.5 nM for the first, 49.5 ± 15.5 nM for the second.

First: B25
Second: B26
The Kd of the first is 2-fold higher: 43 ± 7 nM for the first, 21.1 ± 3.3 nM for the second.

Going from B27 to B28, the Kd rises from 19.1 ± 1.7 nM to 48.5 ± 14 nM (2.5-fold). The first binds more tightly here.

Going from B29 to B30, the Kd rises from 4.55 ± 0.43 nM to 56.5 ± 8.5 nM (12-fold). The first binds more tightly here.

B31 and B32 are within error of each other in Kd: 97 ± 33 nM for the first, 81 ± 15.5 nM for the second.
